Paper PMC12440807

Molecular target: RNA polymerase II;RECQL5;CSB;CSA-DDB1;UVSSA;ELOF1 (Sus scrofa domesticus?;Homo …, UniProt A0A8D1DPV6;A0A0B8RVL1;P19387;O15514;I3LSI7;P61218;P62487;P52434;P36954;P52435;P6 …, |||||)
Assay: cryo-EM; 1 mM ADP; phosphorylated Pol II; glutaraldehyde cross-linked; 3.5 A; EMSA: 20 mM HEPES pH 7.5, 66 mM NaCl, 5% glycerol, 1 mM DTT, 0.25 mg/ml BSA, on ice 30 min; 6% gel, 0.5x TBE, 4 C
Settings: protein: native;recombinant;recombinant;recombinant;recombinant;recombinant; copies: 1;1;1;1;1;1;1;1;1;1;1;1;1;1;1;1;1;1; 15-nt mismatch bubble; RNA 45 nt, 3' end hybridized to template

B1: EC-TCR DNA-RNA scaffold (mixed)
DNA 1: CGCTCTGCTCCTTCTCCCATCCTCTCGATGGCTATGAGATCAACTAG
DNA 2: CTAGTTGATCTCATATTTCATTCCTACTCAGGAGAAGGAGCAGAGCG
RNA: ACAUCAUAACAUUUGAACAAGAAUAUAUAUACAAAAUCGAGAGGA
  binding result: binds
